Tested on: Ezh2 (native PRC2) (Mus musculus)
Test: pulldown
Details: RIP-seq WT RPKM

Substance Tsix RNA has a binding signal (Ezh2-/- RPKM 3.27) of 10.3 RPKM.

Substance Xist/RepA endogenous RNA has a binding signal (Ezh2-/- RPKM 0) of 4.18 RPKM.

— patent US20140142160
